Results on two molecules are retold here after PMC2873509, “The RNA binding protein HuR does not interact directly with HIV-1 reverse transcriptase and does not affect reverse transcription in vitro”.

Data set [1] concerns the target T1, NusA-HuR (UniProt Q15717 1-326). The data set is described as follows: EMSA; 0-3 uM HuR, 100 nM RNA; EMSA: 50 mM Tris pH 7.5, 50 mM KCl, 37 C, 1 h, 100 nM 32P-RNA; 7% native PAGE in 40 mM Tris-acetate pH 8.0, 1 mM EDTA, room temperature. As to conditions: protein: recombinant; tags: N-terminal NusA fusion, TEV site ENLYFQS; Ni-NTA purified; label: 32P. On the technique in general: Mobility shift assays separate free from complexed probe on a gel.

For data set [2], the target named is T1, NusA-HuR. The data set is described as follows: EMSA; EMSA: 50 mM Tris pH 7.5, 50 mM KCl, 37 C, 1 h, 100 nM 32P-RNA; 7% native PAGE in 40 mM Tris-acetate pH 8.0, 1 mM EDTA, room temperature. As to conditions: protein: recombinant; tags: N-terminal NusA fusion, TEV site ENLYFQS; Ni-NTA purified; label: 32P; RNA template with annealed primer.

T1 sequence (Q15717 whole entry, the tested form may be a part): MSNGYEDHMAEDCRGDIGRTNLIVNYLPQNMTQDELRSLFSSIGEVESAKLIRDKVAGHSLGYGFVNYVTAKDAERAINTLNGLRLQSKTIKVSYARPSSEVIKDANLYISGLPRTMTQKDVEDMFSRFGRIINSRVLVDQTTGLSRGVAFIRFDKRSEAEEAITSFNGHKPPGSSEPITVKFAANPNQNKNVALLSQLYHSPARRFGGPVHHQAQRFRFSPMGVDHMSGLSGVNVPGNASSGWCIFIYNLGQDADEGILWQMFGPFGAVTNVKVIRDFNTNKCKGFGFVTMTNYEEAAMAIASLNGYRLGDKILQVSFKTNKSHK

As to UCAGAUAUUUAUAUUUUUAUUUUAUUUUUUUCUACCUUGAGGUCUUUUGA (ssRNA) [ARE-containing synthetic ssRNA (Fig. 2C)], the binding result in data set [1] was “binds”.

B1: ARE-containing template/primer (Fig. 4B) (mixed)
RNA: UCAGAUAUUUAUAUUUUUAUUUUAUUUUUUUCUACCUUGAGGUCUUUUGA
DNA: CACTAGTCAAAAGACCTC
With B1, in data set [2], the binding result is given as “binds”.
